Experiments:
PKC-β2 = biological target: T1, PKC-β2 (Homo sapiens, UniProt P05771); assay: Nuclear localization of PKC-β2 (Fn/c, immunofluorescence), specificity; type: cell-based; conditions: MCF7 breast cancer cell line; FIG. 1D
T1 construct: endogenous in cells; host or cells: MCF7
Excerpt: (§1) FIG. 1 is a graphical, schematic and photographic representation showing that PKC-θ can be targeted for therapeutic intervention. A) Depicts the strength of binding of recombinant purified His6-PKC-θ to increasing concentrations of different subunits and subunit combinations (α2, α2β1, and β1) of the importin α/β heterodimer nuclear transport receptor using an AlphaScreen® binding assay as described in Wagstaff et al. (2011. Journal of Biomolecular Screening 16 (2):192-200). B-C) Depicts protein structure of PKC-θ indicating binding locations for the PKC-θ peptide inhibitor, PKCθi (RKEIDPPFRPKVK), including the nuclear localization sequence (NLS) of PKC-θ. D) The specificity of PKCθi was examined on cells treated with this peptide inhibitor. Cells were screened with primary antibodies to PKC-θ (T538p), PKC-β2, PKC-β1, PKC-α, PKC-ε and PKC-γ. The nuclear to cytoplasmic fluorescence ratio (Fn/c) using the equation: Fn/c=(Fn−Fb)/(Fc−Fb), where Fn is nuclear fluorescence, Fc is cytoplasmic fluorescence, and Fb is background fluorescence was used to determine the impact on nuclear translocation/localization. […] EC^50 of inhibitors calculated using GraphPad PRISM software. F) The PKC-θ kinase activity was measured using the PKC kinase activity kit from ENZO life sciences and recombinant PKC-θ; C27 is an inhibitor of PKC-θ kinase activity, which is disclosed in Jimenez et al. (2013. […]

PKC-β1 = biological target: T2, PKC-β1 (Homo sapiens, UniProt P05771); assay: Nuclear localization of PKC-β1 (Fn/c, immunofluorescence), specificity; type: cell-based; conditions: MCF7 breast cancer cell line; FIG. 1D
T2 construct: endogenous in cells; host or cells: MCF7
T2 sequence (P05771 whole entry): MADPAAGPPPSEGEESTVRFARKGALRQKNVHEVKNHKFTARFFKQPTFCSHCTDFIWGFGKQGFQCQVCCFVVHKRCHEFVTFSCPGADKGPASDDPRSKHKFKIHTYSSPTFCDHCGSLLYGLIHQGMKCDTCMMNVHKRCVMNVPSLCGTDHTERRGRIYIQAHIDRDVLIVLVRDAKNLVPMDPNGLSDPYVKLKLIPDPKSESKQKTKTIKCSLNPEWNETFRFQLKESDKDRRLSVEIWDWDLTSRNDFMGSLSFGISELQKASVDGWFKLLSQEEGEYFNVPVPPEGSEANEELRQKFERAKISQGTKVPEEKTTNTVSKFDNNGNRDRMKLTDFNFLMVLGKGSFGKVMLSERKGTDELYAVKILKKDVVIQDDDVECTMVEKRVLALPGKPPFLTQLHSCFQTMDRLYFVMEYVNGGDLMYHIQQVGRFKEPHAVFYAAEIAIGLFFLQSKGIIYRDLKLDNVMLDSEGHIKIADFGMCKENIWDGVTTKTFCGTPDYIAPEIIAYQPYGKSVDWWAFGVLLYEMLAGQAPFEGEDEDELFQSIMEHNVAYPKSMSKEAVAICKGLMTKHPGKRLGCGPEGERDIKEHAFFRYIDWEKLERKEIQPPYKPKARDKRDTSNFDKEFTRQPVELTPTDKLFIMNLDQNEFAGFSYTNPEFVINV
Excerpt: as §1

recombinant PKC-θ = recombinant PKC-θ (Homo sapiens, UniProt Q04759); assay: PKC-θ kinase activity (PKC kinase activity kit, ENZO life sciences); type: biochemical; conditions: FIG. 1F
recombinant PKC-θ, sequence (Q04759 whole entry): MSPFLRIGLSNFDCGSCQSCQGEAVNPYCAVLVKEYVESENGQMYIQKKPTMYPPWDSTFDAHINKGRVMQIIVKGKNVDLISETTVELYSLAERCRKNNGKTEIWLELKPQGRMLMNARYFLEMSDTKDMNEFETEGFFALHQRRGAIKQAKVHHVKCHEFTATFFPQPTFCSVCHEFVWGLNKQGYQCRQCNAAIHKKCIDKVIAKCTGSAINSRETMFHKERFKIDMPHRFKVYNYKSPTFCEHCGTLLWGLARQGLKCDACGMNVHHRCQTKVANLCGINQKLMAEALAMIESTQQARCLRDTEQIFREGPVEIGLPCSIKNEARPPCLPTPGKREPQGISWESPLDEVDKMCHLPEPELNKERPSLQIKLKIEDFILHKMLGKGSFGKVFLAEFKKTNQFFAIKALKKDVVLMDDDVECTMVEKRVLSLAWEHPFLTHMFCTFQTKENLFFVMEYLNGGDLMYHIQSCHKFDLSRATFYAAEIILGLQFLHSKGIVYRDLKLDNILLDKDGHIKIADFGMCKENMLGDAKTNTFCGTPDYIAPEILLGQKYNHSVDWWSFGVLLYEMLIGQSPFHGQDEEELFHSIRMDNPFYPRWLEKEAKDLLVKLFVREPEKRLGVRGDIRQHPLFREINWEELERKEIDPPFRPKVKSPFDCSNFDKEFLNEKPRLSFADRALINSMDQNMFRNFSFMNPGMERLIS
Excerpt: as §1

[1] = test system: CD8^+ T-cells isolated from melanoma patient's bloods; assay: Immunofluorescence of IFN-γ and TNF-α in patient CD8+ T-cells; type: cell-based, human; conditions: across all samples, particularly the stimulated samples; inhibitor 8 μm; FIG. 3
Method: FIG. 3 is a photographic representation depicting a PKC-θ resistance signature in CD8^+ T-cells. A-B) CD8s were isolated from melanoma patient liquid biopsies (CR=complete response, SD=Stable Disease, PD=progression of disease) and were stimulated with PMA/CI and pre-clinically screened with either vehicle control or PKCθi nuclear peptide inhibitor. Samples were fixed and immunofluorescence microscopy was performed on these cells with primary antibodies for ZEB1, PKC-θ, and CD8. Representative images for each dataset are shown. Graph represents the TNFI for PKC-Theta and TNFI for ZEB1 measured using ImageJ to select the nucleus minus background (n=>20 cells/sample). […] Graph represents the TNFI for TNF-α and TNFI for IFN-γ measured using ImageJ to select the nucleus minus background (n=>20 cells/sample). […]
Metastatic melanoma biopsies were pre-enriched using the RosetteSep™ method to isolate CTCs by employing the RosetteSep™ Human CD45 Depletion Kit (15162, Stemcell Technologies) to remove CD45+ cells and red blood cells, using density gradient centrifugation with SepMate™-50 (IVD) density gradient tubes (85450, Stemcell Technologies) and Lymphoprep™ density gradient medium (07861, Stemcell Technologies). […] Digital images were analysed using ImageJ software (ImageJ, NIH, Bethesda, Md., USA) to determine TNFI, TCFI or TFI. […]

T1 sequence (P05771 1-673 isoform P05771-2): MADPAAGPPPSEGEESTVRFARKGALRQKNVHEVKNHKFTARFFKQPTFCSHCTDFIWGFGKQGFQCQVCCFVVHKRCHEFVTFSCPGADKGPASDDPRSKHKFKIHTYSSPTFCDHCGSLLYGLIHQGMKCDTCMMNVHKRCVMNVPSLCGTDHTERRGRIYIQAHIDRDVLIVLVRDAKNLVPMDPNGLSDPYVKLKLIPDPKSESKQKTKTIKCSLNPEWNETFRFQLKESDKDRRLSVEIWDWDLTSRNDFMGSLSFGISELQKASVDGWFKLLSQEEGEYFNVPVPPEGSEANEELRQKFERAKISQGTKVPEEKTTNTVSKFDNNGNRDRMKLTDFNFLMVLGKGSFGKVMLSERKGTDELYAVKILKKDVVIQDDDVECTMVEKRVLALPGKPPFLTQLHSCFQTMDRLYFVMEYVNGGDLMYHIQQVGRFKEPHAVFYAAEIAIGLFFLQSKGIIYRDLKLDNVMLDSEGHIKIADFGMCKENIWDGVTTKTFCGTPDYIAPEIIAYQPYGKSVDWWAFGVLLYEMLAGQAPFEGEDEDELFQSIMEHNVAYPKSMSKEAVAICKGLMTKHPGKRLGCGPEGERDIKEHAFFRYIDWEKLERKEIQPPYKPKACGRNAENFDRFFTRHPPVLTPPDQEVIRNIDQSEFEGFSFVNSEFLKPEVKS

RKEIDPPFRPKVK [PKCθi]
nuclear localization of PKC-β2 (PKC-β2): no effect
nuclear localization of PKC-β1 (PKC-β1): no effect
PKC-θ catalytic activity (recombinant PKC-θ): without impacting
expression of IFN-γ [1]: significant increase
expression of TNF-α [1]: significant increase
